Assay results from patent publication US20230295259A1 (Protagonist Therapeutics, Inc., priority 2020, published 2023).
Starred links: 1 amine or outer side, 2 acyl side, 3 side chain; linkers in the order of their positions; H or OH if unused. Positions of bridges follow the written chain, without caps; N, C: chain ends. Non-standard residues stand in square brackets, D forms with d. Groups on a side chain read outwards from the residue. No end group written: not given here. *: point of attachment. PEG12 = NCCOCCOCCOCCOCCOCCOCCOCCOCCOCCOCCOCCOCCC(=O)O; C18 diacid = O=C(O)CCCCCCCCCCCCCCCCC(=O)*; Dip = N[C@H](C(=O)O)C(c1ccccc1)c1ccccc1; γGlu = O=C(O)[C@H](CCC(=O)[*:2])N[*:1]; Palmitoyl = CCCCCCCCCCCCCCCC(=O)*; β3hF = N[C@H](CC(=O)O)Cc1ccccc1; Isovaleryl = CC(C)CC(=O)*; Dap = NC[C@H](N)C(=O)O; AEEA = NCCOCCOCC(=O)O

T1: human ferroportin (SLC40A1) fused in frame with GFP, stably expressed in HEK293 cells (human, UniProt Q9NP59 1-571)
T1 sequence (looked up): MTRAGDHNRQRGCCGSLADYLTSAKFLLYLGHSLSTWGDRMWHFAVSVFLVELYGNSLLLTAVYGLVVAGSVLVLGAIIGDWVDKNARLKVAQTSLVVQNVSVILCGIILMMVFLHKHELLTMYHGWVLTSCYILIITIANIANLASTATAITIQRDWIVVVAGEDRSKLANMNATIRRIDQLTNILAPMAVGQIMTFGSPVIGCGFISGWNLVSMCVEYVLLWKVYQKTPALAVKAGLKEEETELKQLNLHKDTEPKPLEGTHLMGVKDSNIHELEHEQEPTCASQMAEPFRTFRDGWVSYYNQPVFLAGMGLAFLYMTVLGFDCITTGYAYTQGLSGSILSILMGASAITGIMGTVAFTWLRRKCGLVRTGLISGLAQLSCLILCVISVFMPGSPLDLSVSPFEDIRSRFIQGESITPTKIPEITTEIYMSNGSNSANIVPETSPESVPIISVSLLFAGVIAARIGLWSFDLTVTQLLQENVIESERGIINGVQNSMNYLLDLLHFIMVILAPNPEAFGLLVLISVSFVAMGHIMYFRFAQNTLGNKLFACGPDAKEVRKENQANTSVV

T2: ferroportin (endogenously expressed in T47D cells) (Homo sapiens, UniProt Q9NP59)
T2 construct: is a human breast carcinoma adherent cell line which endogenously expresses ferroportin; host or cells: T47D
T2 sequence (Q9NP59 1-571): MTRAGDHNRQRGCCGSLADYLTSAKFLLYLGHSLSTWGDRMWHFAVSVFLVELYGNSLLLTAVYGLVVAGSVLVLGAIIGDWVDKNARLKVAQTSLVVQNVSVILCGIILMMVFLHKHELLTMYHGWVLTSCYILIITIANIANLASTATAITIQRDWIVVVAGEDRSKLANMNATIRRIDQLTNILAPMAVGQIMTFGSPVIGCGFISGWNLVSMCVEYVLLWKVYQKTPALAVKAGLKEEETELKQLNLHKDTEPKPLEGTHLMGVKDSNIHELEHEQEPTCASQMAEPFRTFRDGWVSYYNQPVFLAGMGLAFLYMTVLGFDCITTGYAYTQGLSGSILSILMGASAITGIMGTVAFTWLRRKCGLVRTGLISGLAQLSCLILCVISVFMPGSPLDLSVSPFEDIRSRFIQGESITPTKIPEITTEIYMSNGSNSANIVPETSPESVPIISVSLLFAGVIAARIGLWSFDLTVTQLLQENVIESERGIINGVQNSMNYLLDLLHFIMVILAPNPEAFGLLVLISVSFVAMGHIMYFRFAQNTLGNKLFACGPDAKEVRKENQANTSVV


These molecules were tested against T1, human ferroportin (SLC40A1) fused in … (assay: cell-based or functional assay). Conditions: not given.

Row | Molecule | FPN EC50 [nM]
1 | Isovaleryl-ETHFPCIK([AEEA-AEEA-γGlu-C18 diacid])FEPRSK(Ac)GCE (disulfide 6-16 (inferred)) [Compound 215] | > 3000
2 | XETXXPCIXXXC (Isovaleric Acid-E-T-[His_1Me]-[Dpa]-P-C-I-[Lys(PEG12_Palm)]-[bhPhe]-[(D)Lys]-C-NH2) [Compound 202] | 25.6
3 | XXTHXPCIXXXC (Isovaleric Acid-[Glu_OMe]-T-H-[Dpa]-P-C-I-[Lys(1PEG2_1PEG2_Dap_C18_Diacid)]-[bhPhe]-[(D)Lys]-C-NH2) [Compound 279] | 11.4
4 | XETHXPCIXXXC (Isovaleric Acid-E-T-H-[Dpa]-P-C-I-[Lys(1PEG2_1PEG2_Dap_C18_Diacid)]-[bhPhe]-[(D)Lys]-C-NH2) [Compound 278] | 4.3

Continued, values first:

Row | FPN EC50 [nM] | Molecule
5 | 357 | XETHXPCIXXXC (Isovaleric Acid-E-T-H-[Dpa]-P-C-I-[Lys(1PEG2_1PEG2_Ahx_Palm)]-[bhPhe]-[(D)Lys(PEG20K-C-NH2)) [Compound 314]
6 | 1780 | Isovaleryl-ETH[Dip]PCIK([PEG12-Palmitoyl])[β3hF]K(PEG40KB)RC-NH2 (disulfide 6-12 (inferred)) [Compound 295]
7 | 32.6 | XETHXPCIXXXC (Isovaleric Acid-E-T-H-[Dpa]-P-C-I-[Lys(Ahx_Palm)]-[bhPhe]-[(D)Lys(PEG20K)]-C-NH2) [Compound 312]

Biological target: T1, human ferroportin (SLC40A1) fused in …
Assay: cell-based or functional assay
Conditions: not given
Remark: another data set of the same source

Row | FPN IC50 (nM), grade: *=>500 nM [nM] | Molecule
8 | > 500 | Isovaleryl-ET[Dap][Dip]PCI[dK][β3hF]K([PEG12-Palmitoyl])RC-NH2 (disulfide 6-12 (inferred)) [Compound 603]
9 | > 500 | XEXHXPCIXXXXC (not fully specified; [Isovaleric Acid]-E-S-H-[Dpa]-P-C-I-[(D)Lys]-[aMePhe]-[Lys(PEG12_Palm)]-[(D)Lys]-C-NH2) [Compound 611]

Biological target: T1, human ferroportin (SLC40A1) fused in …
Assay: cell-based or functional assay
Conditions: not given
Remark: another data set of the same source

Row | FPN EC50 [nM] | Molecule
10 | > 3000 | XETHXPCIXXXC ([C18_diacid_Ahx_PEG2_PEG2]-E-T-H-[Dpa]-P-[Cys]-I-[(D)Lys]-[bhPhe]-[(D)Lys]-[Cys]-NH2) [Compound 99]
11 | > 3000 | XETHXPCIXXXC (not fully specified; [Diacid_C18_isoGlu_PEG2_PEG2]-E-T-H-[Dpa]-P-[Cys]-I-[(D)Lys]-[bhPhe]-[(D)Lys]-[Cys]-NH2) [Compound 98]

Each molecule was assayed against human ferroportin (SLC40A1) fused in frame with GFP, stably expressed in HEK293 cells (human) (UniProt Q9NP59) (assay: cell-based or functional assay). Conditions: not given.

Row | Potency EC50 (nM) | Potency EC50 [nM] | Molecule
12 | > 10000 |  | RI-Mini Hepcidin (peptide)
13 |  | 34 | Hepcidin (peptide)
14 |  | 712 | Mini-Hepcidin 1-9 (peptide)

Each molecule was assayed on LAD2 cells (assay: not given). Conditions: not given.
Assay type: cell-based, human
Method in brief: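 Compound serial dilutions were added to LAD2 human mast cells for 30 min. β-Hexosaminidase in supernatants and cell lysates was quantified with the fluorogenic substrate 4-methylumbelliferyl-N-acetyl-b-D-glucosaminide. Dose-response curves plotted % β-hexosaminidase release against peptide concentration.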

Row | EC50 [nM] | Molecule
15 | 8000 | CC[C@H](C)[C@@H]1NC(=O)[C@@H](NC(=O)[C@@H]2CCCN2C(=O)[C@@H](NC(=O)[C@H](Cc2cnc[nH]2)NC(=O)[C@@H](NC(=O)[C@H](CCC(=O)OC)NC(=O)CC(C)C)[C@@H](C)O)C(c2ccccc2)c2ccccc2)CSSC[C@@H](C(N)=O)NC(=O)[C@@H](CCCCN)NC(=O)C[C@H](Cc2ccccc2)NC(=O)[C@H](CCCCNC(=O)COCCOCCNC(=O)COCCOCCNC(=O)[C@H](CN)NC(=O)CCCCCCCCCCCCCCCCC(=O)O)NC1=O [Compound 279, Isovaleric Acid-[Glu_OMe]-T-H-[Dpa]-P—C—I-[Lys(1PEG2_1PEG2_Dap_C18_Diacid)]-[bhPhe]-[(D)Lys]-C—NH2]

These molecules were tested against T2, ferroportin (endogenously expressed in T47D cells) (assay: T47D cell-based ferroportin internalization assay in presence of 0.5% mouse serum albumin (AF647-conjugated detection peptide, flow cytometry)). Conditions: read-out: IC50: T47D Internalization MSA.
Procedure: The potency of the peptides in causing ferroportin internalization was evaluated in a T47D cell-based assay. […] In this internalization assay, the potency of the test peptides was evaluated in the presence of serum albumin, which is the main protein component in the blood. T47D cells were maintained in RPMI media (containing required amount of fetal bovine serum) and regularly sub-cultured. […] The test peptide dilution series were allowed to incubate at room temperature for 30 min. Then the media was aspirated from the 96-well cell plate and test peptide dilution series were added. After 1 hr incubation, the media with test peptides was aspirated out and AF647-conjugated detection peptide was added at fixed concentration of 200 nM. […] The cells were washed again after a 2 hr incubation in preparation for flow cytometry analysis. The Median Fluorescence Intensity (MFI) of the AF647-positive population was measured (after removing dead cells and non-singlets from the analysis). The MFI values were used to generate a dose-response curve and obtain IC50 potencies for the test peptides.

Row | IC50 [nM] | Molecule
16 | 15.4 | CC[C@H](C)[C@@H]1NC(=O)[C@@H](NC(=O)[C@@H]2CCCN2C(=O)[C@@H](NC(=O)[C@H](Cc2cnc[nH]2)NC(=O)[C@@H](NC(=O)[C@H](CCC(=O)OC)NC(=O)CC(C)C)[C@@H](C)O)C(c2ccccc2)c2ccccc2)CSSC[C@@H](C(N)=O)NC(=O)[C@@H](CCCCN)NC(=O)C[C@H](Cc2ccccc2)NC(=O)[C@H](CCCCNC(=O)COCCOCCNC(=O)COCCOCCNC(=O)[C@H](CN)NC(=O)CCCCCCCCCCCCCCCCC(=O)O)NC1=O [Compound 279, Isovaleric Acid-[Glu_OMe]-T-H-[Dpa]-P—C—I-[Lys(1PEG2_1PEG2_Dap_C18_Diacid)]-[bhPhe]-[(D)Lys]-C—NH2]
